In this assay the target is T1, His6-Dsk2 (S. cerevisiae, UniProt P48510 1-373).
T1 sequence (looked up): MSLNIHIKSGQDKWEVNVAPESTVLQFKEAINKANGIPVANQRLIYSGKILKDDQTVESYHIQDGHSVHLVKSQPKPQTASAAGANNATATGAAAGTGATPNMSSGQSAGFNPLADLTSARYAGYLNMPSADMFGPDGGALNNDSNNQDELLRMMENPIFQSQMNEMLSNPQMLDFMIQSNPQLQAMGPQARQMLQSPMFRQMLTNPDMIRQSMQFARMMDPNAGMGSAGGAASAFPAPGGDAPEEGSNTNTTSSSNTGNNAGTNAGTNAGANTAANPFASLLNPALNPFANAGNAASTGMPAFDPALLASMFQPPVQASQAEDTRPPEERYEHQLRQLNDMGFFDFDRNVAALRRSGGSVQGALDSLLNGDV
The assay can be described thus: far-Western, overlay or dot blot.

B1: recombinant Rpn10, full length (natural protein, S. cerevisiae, UniProt P38886 1-268, looked up)
chain: MVLEATVLVIDNSEYSRNGDFPRTRFEAQIDSVEFIFQAKRNSNPENTVGLISGAGANPRVLSTFTAEFGKILAGLHDTQIEGKLHMATALQIAQLTLKHRQNKVQHQRIVAFVCSPISDSRDELIRLAKTLKKNNVAVDIINFGEIEQNTELLDEFIAAVNNPQEETSHLLTVTPGPRLLYENIASSPIILEEGSSGMGAFGGSGGDSDANGTFMDFGVDPSMDPELAMALRLSMEEEQQRQERLRQQQQQQDQPEQSEQPEQHQDK
In the case of B1, the binding result is reported as “binds”.

(Values after article PMC2643056 (Molecular cell, 2008).)
